We go through two substances from US20150037324A1.

pEC50: −log10 of the molar value.

The pEC50 is −log10 of the EC50, conventionally taken in molar units.

The target in experiment [1] is Recombinant human GPR49-Fc ectodomain (human). Description: direct ELISA on coated GPR49-Fc, about 0.1-250 nM, A450; table without unit, nM from the axis [nM] Ab; control whose curve in FIG. 9G is flat (see non_binding), so the fitted value lies outside the range tested and carries no meaning.
The target of experiment [2] is human GPR49 (G-Protein-coupled Receptor 49) on cells (human) (UniProt O75473). Description: cell-based or functional assay.
human GPR49 (G-Protein-coupled Receptor 49) on cells (human), sequence (O75473 22-907 limits assumed): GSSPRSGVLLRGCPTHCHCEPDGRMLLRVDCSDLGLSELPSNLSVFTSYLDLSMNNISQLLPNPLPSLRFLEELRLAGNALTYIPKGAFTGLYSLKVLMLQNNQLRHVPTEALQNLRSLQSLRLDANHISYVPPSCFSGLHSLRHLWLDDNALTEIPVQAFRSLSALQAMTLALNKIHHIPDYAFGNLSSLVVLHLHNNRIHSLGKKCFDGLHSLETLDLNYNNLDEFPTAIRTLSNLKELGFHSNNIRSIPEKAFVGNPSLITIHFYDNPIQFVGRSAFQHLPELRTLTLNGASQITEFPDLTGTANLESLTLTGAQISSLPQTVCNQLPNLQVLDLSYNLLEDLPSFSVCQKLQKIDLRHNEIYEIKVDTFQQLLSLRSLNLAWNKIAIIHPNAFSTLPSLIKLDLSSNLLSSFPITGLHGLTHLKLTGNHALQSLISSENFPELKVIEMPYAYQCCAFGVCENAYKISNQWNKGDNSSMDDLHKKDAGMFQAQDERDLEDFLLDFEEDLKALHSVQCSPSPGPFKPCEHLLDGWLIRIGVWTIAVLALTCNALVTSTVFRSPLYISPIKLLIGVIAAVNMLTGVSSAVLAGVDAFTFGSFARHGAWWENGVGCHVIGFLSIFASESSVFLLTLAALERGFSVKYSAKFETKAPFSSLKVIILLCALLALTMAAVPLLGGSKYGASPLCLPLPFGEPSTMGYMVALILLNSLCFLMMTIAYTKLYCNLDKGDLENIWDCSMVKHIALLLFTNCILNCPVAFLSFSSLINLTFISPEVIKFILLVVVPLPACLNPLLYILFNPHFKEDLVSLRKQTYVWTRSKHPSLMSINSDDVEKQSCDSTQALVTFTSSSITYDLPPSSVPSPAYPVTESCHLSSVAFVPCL

Recombinant human GPR49-Fc ectodomain (human), sequence (chain, as listed by the source limits assumed, form in doubt): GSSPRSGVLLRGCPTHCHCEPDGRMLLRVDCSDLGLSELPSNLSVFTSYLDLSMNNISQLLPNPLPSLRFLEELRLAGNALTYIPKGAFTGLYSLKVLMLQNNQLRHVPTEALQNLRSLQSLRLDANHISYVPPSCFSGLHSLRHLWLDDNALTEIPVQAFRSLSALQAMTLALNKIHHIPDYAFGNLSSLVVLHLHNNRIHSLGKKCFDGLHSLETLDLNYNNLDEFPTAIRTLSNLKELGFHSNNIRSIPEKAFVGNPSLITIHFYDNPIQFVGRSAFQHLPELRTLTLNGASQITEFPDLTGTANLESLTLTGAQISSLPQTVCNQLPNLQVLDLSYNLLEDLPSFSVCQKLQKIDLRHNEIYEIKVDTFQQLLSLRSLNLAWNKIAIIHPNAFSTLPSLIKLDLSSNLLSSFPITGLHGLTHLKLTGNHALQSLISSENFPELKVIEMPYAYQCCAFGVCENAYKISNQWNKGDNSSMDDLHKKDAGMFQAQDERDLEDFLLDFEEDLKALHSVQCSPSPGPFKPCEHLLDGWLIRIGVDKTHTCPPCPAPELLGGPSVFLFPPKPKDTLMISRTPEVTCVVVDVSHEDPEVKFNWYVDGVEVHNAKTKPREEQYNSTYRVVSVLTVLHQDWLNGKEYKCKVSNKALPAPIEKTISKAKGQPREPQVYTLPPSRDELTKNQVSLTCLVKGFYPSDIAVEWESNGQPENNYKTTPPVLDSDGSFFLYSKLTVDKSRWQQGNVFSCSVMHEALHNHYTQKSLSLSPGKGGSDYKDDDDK

For the substance Ctrl (antibody), the negative logarithm of the EC50 (pEC50) in experiment [1] was 5.80.

For the substance R-spondin-1 (ligand), the increase in proliferation, GPR49-3T3 clone 28 in experiment [2] was determined as 4 fold.
